This note sets out measurements from patent US20210079067A1 (US Dept. of Health and Human Services, published 2021).

Assay [1] has as its target T1, mucin-domain-deleted Zaire ebolavirus GP (Zaire ebolavirus, UniProt Q05320 33-650). The assay is described as follows: pH 7.4.
Assay [2] deals with T1, mucin-domain-deleted Zaire ebolavirus GP. The assay is described as follows: biolayer interferometry, Fab, pH 7.4, 1:1 model; Fab, BLI, pH 7.4. Background: BLI is a label-free optical method that tracks binding on a fibre tip over time.
The target is the same in assay [3]. The assay is described as follows: pH 5.3.
Assay [4] has the same target. In words: biolayer interferometry, Fab, pH 5.3, 1:1 model; Fab, BLI, pH 5.3.
Assay [5] has the same target. The assay is described as follows: biolayer interferometry, mAb, pH 7.4, 1:2 bivalent model (apparent).
Assay [6] has the same target.
Assay [7] has the same target. In words: biolayer interferometry, mAb, pH 7.4, 1:2 bivalent model.

B1: S1-4-A09 Fab (Fab, V domains shown)
VH: QVQLQESGPGLVKPSETLSLTCVVSGGILSSFYWNWIRQPPGKGLEWIGNIYYSGSPNYNASFQSRVAISVDTSKNQISLNLKSVTAADTAMYYCVRASRAYLWGSYRPTALDLWGQGSLVTVSS
VL: SYELTQPPSVSVSPGQTATITCSGDKLGDKYTSWFQQRPGQSPLLVIYQDNKRPSGLPARFSGSNSGNTATLTISGTQAMDEADYLCQVWDSGAVFGGGTKLTVL
Regarding B1, the koff in assay [1] stood at 0.000136 s⁻¹; in assay [3], 0.000179 s⁻¹. Moreover, the kon in assay [1] worked out at 131000 M⁻¹ s⁻¹; in assay [3], 85200 M⁻¹ s⁻¹. Besides, the Kd in assay [2] was found to be 1.04 nM; in assay [4] it was 2.1 nM.

B2: mAb100 (antibody, V domains shown)
VH: QVQLQESGPGLVKPSDTLSLTCTVSGGSLSSFYWSWIRQPPGKGLEWIGYIYYSGSPNYSPSLESRVTMSVDTTRNQISLKLDSVTAADTAVYYCVRASRSYYWGSYRPTAFDSWGQGTLVTVSS
VL: SYELTQPLSVSVSPGQTAIFTCSGDNLGDKYVCWFQQRPGQSPMLLIYQDNKRPSGIPERFSGSNSGNTATLTISGTQSTDEADYYCQTWDSTVVFGGGTKLTVL
For the molecule B2, in assay [5], the Kd turned out to be 0.0628 nM. Also, the “EC50 (read off the curve)” value in assay [6] was around 0.01 µg/mL. In assay [7], this molecule displayed a koff of 8.91e-06 s⁻¹ and an on-rate (kon) of 143000 M⁻¹ s⁻¹.

Usually koff stands for the first-order rate constant of dissociation. The term kon denotes the rate constant with which the complex forms. A higher kon goes with faster complex formation. By EC50 (read off the curve) is commonly meant the midpoint of the concentration-response curve. Read a low EC50 (read off the curve) as greater potency.
